# From article PMC9482650, “Quantitative fragmentomics allow affinity mapping of interactomes” (Nature Communications, 2022)
# Biological target: T1, CARD11, Q9BXL7
# T1 sequence (Q9BXL7 662-765, limits assumed, looked up): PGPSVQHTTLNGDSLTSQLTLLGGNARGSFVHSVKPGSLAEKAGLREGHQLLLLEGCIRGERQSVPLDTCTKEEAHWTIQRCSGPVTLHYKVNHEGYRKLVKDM
# Test: holdup assay
# Design: key: below the threshold = too weak to quantify, mostly under pKd 3.1 to 4
# Details: plain residues with an end cap or a label only (N-terminal biotin on a linker: ado-ado)
row,Binder,pKd
1,"PALKNGQYWV [CSPG4, Q6UVK1]",below the threshold

# Biological target: CASK, O14936
# Test: holdup assay
# Design: key: below the threshold = too weak to quantify, mostly under pKd 3.1 to 4
# Details: plain residues with an end cap or a label only (N-terminal biotin on a linker: ado-ado)
# Sequence of CASK, O14936 (O14936 487-570): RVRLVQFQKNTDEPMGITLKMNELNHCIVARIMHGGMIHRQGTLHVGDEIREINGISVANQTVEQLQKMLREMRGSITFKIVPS
row,Binder,pKd
1,"PALKNGQYWV [CSPG4, Q6UVK1]",below the threshold

# Biological target: DLG2_2, Q15700
# Test: holdup assay
# Design: key: below the threshold = too weak to quantify, mostly under pKd 3.1 to 4
# Details: plain residues with an end cap or a label only (N-terminal biotin on a linker: ado-ado)
# Sequence of DLG2_2, Q15700 (Q15700 189-283): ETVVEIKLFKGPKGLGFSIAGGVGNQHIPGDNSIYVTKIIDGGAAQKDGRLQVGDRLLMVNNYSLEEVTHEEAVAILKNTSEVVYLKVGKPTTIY
row,Binder,pKd
1,"PALKNGQYWV [CSPG4, Q6UVK1]",below the threshold

# Biological target: FRMPD2_1, Q68DX3
# Test: holdup assay
# Design: key: below the threshold = too weak to quantify, mostly under pKd 3.1 to 4
# Details: plain residues with an end cap or a label only (N-terminal biotin on a linker: ado-ado)
# Sequence of FRMPD2_1, Q68DX3 (Q68DX3 770-861): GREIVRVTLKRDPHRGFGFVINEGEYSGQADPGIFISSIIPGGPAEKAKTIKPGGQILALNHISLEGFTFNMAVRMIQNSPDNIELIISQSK
row,Binder,pKd
1,"PALKNGQYWV [CSPG4, Q6UVK1]",3.82

# Biological target: GOPC, Q9HD26
# Test: holdup assay
# Design: key: below the threshold = too weak to quantify, mostly under pKd 3.1 to 4
# Details: plain residues with an end cap or a label only (N-terminal biotin on a linker: ado-ado)
row,Binder,pKd
1,"PALKNGQYWV [CSPG4, Q6UVK1]",below the threshold

# Biological target: T2, GRIP1_2, Q9Y3R0
# T2 sequence (Q9Y3R0 145-248, limits assumed, looked up): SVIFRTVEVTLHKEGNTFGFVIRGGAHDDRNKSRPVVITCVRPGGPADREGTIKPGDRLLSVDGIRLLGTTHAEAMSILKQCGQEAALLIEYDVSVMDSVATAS
# Test: holdup assay
# Design: key: below the threshold = too weak to quantify, mostly under pKd 3.1 to 4
# Details: plain residues with an end cap or a label only (N-terminal biotin on a linker: ado-ado)
row,Binder,pKd
1,"PALKNGQYWV [CSPG4, Q6UVK1]",below the threshold

# Biological target: GRIP2_3, Q9C0E4
# Test: holdup assay
# Design: key: below the threshold = too weak to quantify, mostly under pKd 3.1 to 4
# Details: plain residues with an end cap or a label only (N-terminal biotin on a linker: ado-ado)
# Sequence of GRIP2_3, Q9C0E4 (Q9C0E4 238-339): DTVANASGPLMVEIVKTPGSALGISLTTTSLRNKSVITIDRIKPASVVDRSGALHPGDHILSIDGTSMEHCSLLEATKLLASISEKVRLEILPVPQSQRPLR
row,Binder,pKd
1,"PALKNGQYWV [CSPG4, Q6UVK1]",below the threshold

# Biological target: GRIP2_4, Q9C0E4
# Test: holdup assay
# Design: key: below the threshold = too weak to quantify, mostly under pKd 3.1 to 4
# Details: plain residues with an end cap or a label only (N-terminal biotin on a linker: ado-ado)
# Sequence of GRIP2_4, Q9C0E4 (Q9C0E4 446-548): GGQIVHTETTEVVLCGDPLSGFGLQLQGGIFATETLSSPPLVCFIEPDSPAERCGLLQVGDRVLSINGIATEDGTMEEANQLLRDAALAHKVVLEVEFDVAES
row,Binder,pKd
1,"PALKNGQYWV [CSPG4, Q6UVK1]",below the threshold

# Biological target: HTRA1, Q92743
# Test: holdup assay
# Design: key: below the threshold = too weak to quantify, mostly under pKd 3.1 to 4
# Details: plain residues with an end cap or a label only (N-terminal biotin on a linker: ado-ado)
# Sequence of HTRA1, Q92743 (Q92743 360-477): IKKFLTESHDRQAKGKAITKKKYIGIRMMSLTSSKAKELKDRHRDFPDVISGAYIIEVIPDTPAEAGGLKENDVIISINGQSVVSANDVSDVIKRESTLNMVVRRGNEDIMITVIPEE
row,Binder,pKd
1,"PALKNGQYWV [CSPG4, Q6UVK1]",5.1

# Biological target: T3, HTRA4, P83105
# T3 sequence (P83105 378-476, limits assumed, looked up): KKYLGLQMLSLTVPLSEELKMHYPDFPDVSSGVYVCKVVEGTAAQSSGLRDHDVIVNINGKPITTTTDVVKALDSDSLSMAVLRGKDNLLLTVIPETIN
# Test: holdup assay
# Design: key: below the threshold = too weak to quantify, mostly under pKd 3.1 to 4
# Details: plain residues with an end cap or a label only (N-terminal biotin on a linker: ado-ado)
row,Binder,pKd
1,"PALKNGQYWV [CSPG4, Q6UVK1]",4.14

# Biological target: Inadl_5, Q8NI35
# Test: holdup assay
# Design: key: below the threshold = too weak to quantify, mostly under pKd 3.1 to 4
# Details: plain residues with an end cap or a label only (N-terminal biotin on a linker: ado-ado)
# Sequence of Inadl_5, Q8NI35 (Q8NI35 673-780): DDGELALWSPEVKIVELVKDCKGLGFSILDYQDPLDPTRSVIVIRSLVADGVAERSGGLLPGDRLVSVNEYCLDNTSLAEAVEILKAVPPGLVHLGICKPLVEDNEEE
row,Binder,pKd
1,"PALKNGQYWV [CSPG4, Q6UVK1]",4.31

# Biological target: Inadl_6, Q8NI35
# Test: holdup assay
# Design: key: below the threshold = too weak to quantify, mostly under pKd 3.1 to 4
# Details: plain residues with an end cap or a label only (N-terminal biotin on a linker: ado-ado)
# Sequence of Inadl_6, Q8NI35 (Q8NI35 1058-1167): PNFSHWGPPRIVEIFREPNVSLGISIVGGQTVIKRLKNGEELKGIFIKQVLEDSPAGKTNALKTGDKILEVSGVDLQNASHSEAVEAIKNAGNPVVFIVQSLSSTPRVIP
row,Binder,pKd
1,"PALKNGQYWV [CSPG4, Q6UVK1]",below the threshold

# Biological target: LDB3, O75112
# Test: holdup assay
# Design: key: below the threshold = too weak to quantify, mostly under pKd 3.1 to 4
# Details: plain residues with an end cap or a label only (N-terminal biotin on a linker: ado-ado)
# Sequence of LDB3, O75112 (O75112 1-94): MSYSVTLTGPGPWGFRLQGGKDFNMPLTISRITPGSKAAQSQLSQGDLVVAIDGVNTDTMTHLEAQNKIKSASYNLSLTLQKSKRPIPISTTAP
row,Binder,pKd
1,"PALKNGQYWV [CSPG4, Q6UVK1]",below the threshold

# Biological target: LNX1_3, Q8TBB1
# Test: holdup assay
# Design: key: below the threshold = too weak to quantify, mostly under pKd 3.1 to 4
# Details: plain residues with an end cap or a label only (N-terminal biotin on a linker: ado-ado)
# Sequence of LNX1_3, Q8TBB1 (Q8TBB1 500-596): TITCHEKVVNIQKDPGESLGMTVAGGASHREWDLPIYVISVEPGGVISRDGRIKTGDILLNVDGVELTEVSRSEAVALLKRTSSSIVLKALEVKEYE
row,Binder,pKd
1,"PALKNGQYWV [CSPG4, Q6UVK1]",below the threshold

# Biological target: MAGI2_3, Q86UL8
# Test: holdup assay
# Design: key: below the threshold = too weak to quantify, mostly under pKd 3.1 to 4
# Details: plain residues with an end cap or a label only (N-terminal biotin on a linker: ado-ado)
# Sequence of MAGI2_3, Q86UL8 (Q86UL8 600-682): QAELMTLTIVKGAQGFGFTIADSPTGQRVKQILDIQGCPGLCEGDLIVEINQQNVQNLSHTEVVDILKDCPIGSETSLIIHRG
row,Binder,pKd
1,"PALKNGQYWV [CSPG4, Q6UVK1]",below the threshold

# Biological target: MAGI2_4, Q86UL8
# Test: holdup assay
# Design: key: below the threshold = too weak to quantify, mostly under pKd 3.1 to 4
# Details: plain residues with an end cap or a label only (N-terminal biotin on a linker: ado-ado)
# Sequence of MAGI2_4, Q86UL8 (Q86UL8 772-865): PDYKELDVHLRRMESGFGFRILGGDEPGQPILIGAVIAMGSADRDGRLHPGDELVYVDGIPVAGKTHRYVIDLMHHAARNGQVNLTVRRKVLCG
row,Binder,pKd
1,"PALKNGQYWV [CSPG4, Q6UVK1]",3.82

# Biological target: MAGI2_5, Q86UL8
# Test: holdup assay
# Design: key: below the threshold = too weak to quantify, mostly under pKd 3.1 to 4
# Details: plain residues with an end cap or a label only (N-terminal biotin on a linker: ado-ado)
# Sequence of MAGI2_5, Q86UL8 (Q86UL8 915-1017): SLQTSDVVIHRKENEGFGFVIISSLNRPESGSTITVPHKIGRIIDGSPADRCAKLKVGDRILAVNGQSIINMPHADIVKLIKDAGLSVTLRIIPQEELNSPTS
row,Binder,pKd
1,"PALKNGQYWV [CSPG4, Q6UVK1]",below the threshold

# Biological target: MAST1, Q9Y2H9
# Test: holdup assay
# Design: key: below the threshold = too weak to quantify, mostly under pKd 3.1 to 4
# Details: plain residues with an end cap or a label only (N-terminal biotin on a linker: ado-ado)
# Sequence of MAST1, Q9Y2H9 (Q9Y2H9 962-1065): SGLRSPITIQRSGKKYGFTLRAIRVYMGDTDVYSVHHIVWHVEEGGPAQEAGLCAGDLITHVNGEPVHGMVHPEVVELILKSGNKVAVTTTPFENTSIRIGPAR
row,Binder,pKd
1,"PALKNGQYWV [CSPG4, Q6UVK1]",below the threshold

# Biological target: T4, NHERF3_3, Q5T2W1
# T4 sequence (Q5T2W1 238-333, limits assumed, looked up): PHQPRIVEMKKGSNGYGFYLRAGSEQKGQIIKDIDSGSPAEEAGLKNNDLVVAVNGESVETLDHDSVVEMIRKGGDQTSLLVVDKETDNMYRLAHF
# Test: holdup assay
# Design: key: below the threshold = too weak to quantify, mostly under pKd 3.1 to 4
# Details: plain residues with an end cap or a label only (N-terminal biotin on a linker: ado-ado)
row,Binder,pKd
1,"PALKNGQYWV [CSPG4, Q6UVK1]",below the threshold

# Biological target: T5, NHERF3_4, Q5T2W1
# T5 sequence (Q5T2W1 373-468, limits assumed, looked up): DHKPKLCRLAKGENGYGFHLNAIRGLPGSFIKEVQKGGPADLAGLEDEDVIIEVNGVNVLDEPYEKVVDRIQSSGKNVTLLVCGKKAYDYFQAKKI
# Test: holdup assay
# Design: key: below the threshold = too weak to quantify, mostly under pKd 3.1 to 4
# Details: plain residues with an end cap or a label only (N-terminal biotin on a linker: ado-ado)
row,Binder,pKd
1,"PALKNGQYWV [CSPG4, Q6UVK1]",below the threshold

# Biological target: NHERF4_2, Q86UT5
# Test: holdup assay
# Design: key: below the threshold = too weak to quantify, mostly under pKd 3.1 to 4
# Details: plain residues with an end cap or a label only (N-terminal biotin on a linker: ado-ado)
# Sequence of NHERF4_2, Q86UT5 (Q86UT5 220-308): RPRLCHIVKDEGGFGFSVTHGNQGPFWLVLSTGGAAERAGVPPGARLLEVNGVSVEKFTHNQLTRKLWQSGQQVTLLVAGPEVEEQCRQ
row,Binder,pKd
1,"PALKNGQYWV [CSPG4, Q6UVK1]",below the threshold

# Biological target: T6, PDZD2_2, O15018
# T6 sequence (O15018 329-429, limits assumed, looked up): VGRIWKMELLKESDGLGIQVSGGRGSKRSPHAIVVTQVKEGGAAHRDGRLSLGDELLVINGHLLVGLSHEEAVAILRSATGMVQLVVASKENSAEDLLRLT
# Test: holdup assay
# Design: key: below the threshold = too weak to quantify, mostly under pKd 3.1 to 4
# Details: plain residues with an end cap or a label only (N-terminal biotin on a linker: ado-ado)
row,Binder,pKd
1,"PALKNGQYWV [CSPG4, Q6UVK1]",5.45

# Biological target: PICK1, Q9NRD5
# Test: holdup assay
# Design: key: below the threshold = too weak to quantify, mostly under pKd 3.1 to 4
# Details: plain residues with an end cap or a label only (N-terminal biotin on a linker: ado-ado)
# Sequence of PICK1, Q9NRD5 (Q9NRD5 17-115): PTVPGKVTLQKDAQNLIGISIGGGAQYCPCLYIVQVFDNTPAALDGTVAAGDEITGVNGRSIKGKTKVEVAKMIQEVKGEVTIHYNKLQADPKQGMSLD
row,Binder,pKd
1,"PALKNGQYWV [CSPG4, Q6UVK1]",below the threshold

# Biological target: PTPN3, P26045
# Test: holdup assay
# Design: key: below the threshold = too weak to quantify, mostly under pKd 3.1 to 4
# Details: plain residues with an end cap or a label only (N-terminal biotin on a linker: ado-ado)
# Sequence of PTPN3, P26045 (P26045 505-587): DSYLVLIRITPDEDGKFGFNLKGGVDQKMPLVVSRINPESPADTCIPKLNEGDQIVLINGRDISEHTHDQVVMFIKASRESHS
row,Binder,pKd
1,"PALKNGQYWV [CSPG4, Q6UVK1]",4.1

# Biological target: SCRIB_2, Q14160
# Test: holdup assay
# Design: key: below the threshold = too weak to quantify, mostly under pKd 3.1 to 4
# Details: plain residues with an end cap or a label only (N-terminal biotin on a linker: ado-ado)
# Sequence of SCRIB_2, Q14160 (Q14160 857-960): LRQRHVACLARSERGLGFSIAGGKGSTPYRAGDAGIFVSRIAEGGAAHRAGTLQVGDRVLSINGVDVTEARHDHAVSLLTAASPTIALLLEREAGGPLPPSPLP
row,Binder,pKd
1,"PALKNGQYWV [CSPG4, Q6UVK1]",below the threshold

# Biological target: T7, SIPA1L2, Q9P2F8
# T7 sequence (Q9P2F8 945-1036, limits assumed, looked up): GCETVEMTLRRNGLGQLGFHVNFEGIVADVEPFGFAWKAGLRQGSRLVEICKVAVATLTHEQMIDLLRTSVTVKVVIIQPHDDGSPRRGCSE
# Test: holdup assay
# Design: key: below the threshold = too weak to quantify, mostly under pKd 3.1 to 4
# Details: plain residues with an end cap or a label only (N-terminal biotin on a linker: ado-ado)
row,Binder,pKd
1,"PALKNGQYWV [CSPG4, Q6UVK1]",below the threshold

# Biological target: T8, SNTA1, Q13424
# T8 sequence (Q13424 82-180, limits assumed, looked up): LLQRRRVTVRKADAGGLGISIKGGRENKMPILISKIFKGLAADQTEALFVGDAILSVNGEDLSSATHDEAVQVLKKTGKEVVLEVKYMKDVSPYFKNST
# Test: holdup assay
# Design: key: below the threshold = too weak to quantify, mostly under pKd 3.1 to 4
# Details: plain residues with an end cap or a label only (N-terminal biotin on a linker: ado-ado)
row,Binder,pKd
1,"PALKNGQYWV [CSPG4, Q6UVK1]",below the threshold

# Biological target: T9, SNTG1, Q9NSN8
# T9 sequence (Q9NSN8 52-150, limits assumed, looked up): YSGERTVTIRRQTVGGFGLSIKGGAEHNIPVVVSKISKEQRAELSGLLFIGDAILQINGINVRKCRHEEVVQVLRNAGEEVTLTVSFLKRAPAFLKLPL
# Test: holdup assay
# Design: key: below the threshold = too weak to quantify, mostly under pKd 3.1 to 4
# Details: plain residues with an end cap or a label only (N-terminal biotin on a linker: ado-ado)
row,Binder,pKd
1,"PALKNGQYWV [CSPG4, Q6UVK1]",below the threshold

# Biological target: T10, TJP3_3, O95049
# T10 sequence (O95049 375-456, limits assumed, looked up): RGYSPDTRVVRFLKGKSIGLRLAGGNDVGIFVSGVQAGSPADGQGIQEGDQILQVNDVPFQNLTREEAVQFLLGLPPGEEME
# Test: holdup assay
# Design: key: below the threshold = too weak to quantify, mostly under pKd 3.1 to 4
# Details: plain residues with an end cap or a label only (N-terminal biotin on a linker: ado-ado)
row,Binder,pKd
1,"PALKNGQYWV [CSPG4, Q6UVK1]",4.81
